Test: soluble on expression in E. coli; label from the status in PepcDB or PDB records

Sequence | soluble on expression in E. coli
MGLRRGWTPPWPLDLGIVLGPLRRGPGDPTFRTTPDGAVWRASRTPAGPGTLRVALRGGAVEAEAWGPGAEWLLHQLPEMLGSADDPDAFEPRHRLVAVTRHRRPGLRLTRTGLVLESLIPSVLEQKVTADEAYRAWRLLVRKFGEPAPGPVEGRMHVMPEPRTWALIPSWEWHRAGVDNKRASTILRAVRVAARLEQAMGMEPAQAQARLEVVSGIGPWTSAETVQRSHGAADSVTVGDLHLPRIVGYALAGDRDADDAAMLELLAPYAGQRHRAARLILLSGRTPPAAALEHHHHHH | not soluble
MRDEDFCCAVCLDFFVEPCIIECGHSYCRFCIESHLNINEKCPLCRAHTGNPIRNRQLESLTMSYVSSRNISTEYYERMKSYQKKLLLQNRALVIIWTELNKRPGHSTELCNLVRNVQDEELKSEIMWQVKQQVGVGLEHTGDLQEENVTIRLKNSSSQQ | not soluble
MLGLPPELGLRTYSARLLGSNPKLVLHGGGNTSVKLNINDLFGNPVQVMCIKGSGQDLATITASGHPAVRLAPLQQLKVLDHLSDEDMVNILRTNLLDCRAPTPSVEALLHAFVDRPVIDHTHAVAAMVIADQPDGDRLCRYIYGERVLWIPYVMSGFALSLAVERAFRAYPDAEGMLLGKHGLCTFGESAKASYERMITFVTLAENFIESRRAIYSPLEHHHHHH | not soluble
GPHSLRYFVTAVSRPGLGEPRFIAVGYVDDTQFVRFDSDADNPRFEPRAPWMEQEGPEYWEEQTQRAKSDEQWFRVSLRTAQRYYNQSKGGSHTFQRMFGCDVGSDWRLLRGYQQFAYDGRDYIALNEDLKTWTAADTAALITRRKWEQAGDAEYYRAYLEGECVEWLRRYLELGNETLLRTDSPKAHVTYHPRSQVDVTLRCWALGFYPADITLTWQLNGEDLTQDMELVETRPAGDGTFQKWAAVVVPLGKEQNYTCHVHHKGLPEPLTLRWKLPPSTVSN | soluble
MGSDKIHHHHHHMAHPPQIRIPATYLRGGTSKGVFFRLEDLPESCRVPGEARDRLFMRVIGSPDPYAAHIDGMGGATSSTSKCVILSKSSQPGHDVDYLYGQVSIDKPFVDWSGNCGNLSTGAGAFALHAGLVDPARIPEDGICEVRIWQANIGKTIIAHVPVSGGQVQETGDFELDGVTFPAAEIVLEFLDPSDDGEDGGAIFPTGNLVDDLEVPGVGTFKATMINAGIPTVFVNAEEIGYRGTELREEINGDPQQLARFERIRVAGALRMGLIKTPEEAATRQHTPKIAFVAPPRDYRTASGKLVAAGDIDLLVRALSMGKLHHAMMGTAAVAIGTAAAIPGTLVNLAAGGGERSAVRFGHPSGTLRVGAEASQANGEWTVTKAIMSRSARILMEGWVRVPGDAF | not soluble
GPVWRKHYITYRINNYTPDMNREDVDYAIRKAFQVWSNVTPLKFSKINTGMADILVVFARGAHGDDHAFDGKGGILAHAFGPGSGIGGDAHFDEDEFWTTHSGGTNLFLTAVHEIGHSLGLGHSSDPKAVMFPTYKYVDINTFRLSADDIRGIQSLYGDPKENQRLPNPDNSEPALCDPNLSFDAVTTVGNKIFFFKDRFFWLKVSERPKTSVNLISSLWPTLPSGIEAAYEIEARNQVFLFKDDKYWLISNLRPEPNYPKSIHSFGFPNFVKKIDAAVFNPRFYRTYFFVDNQYWRYDERRQMMDPGYPKLITKNFQGIGPKIDAVFYSKNKYYYFFQGSNQFEYDFLLQRITKTLKSNSWFGC | soluble
KRFEFVGWGSRQLIEFLHSLGKDTSEMISRYDVSDTIAKYISKEGLLDPSNKKKVVCDKRLVLLFGTRTIFRMKVYDLLEKHYKENQD | soluble
MLPDVQLLKPEVPIGLSRVGATGIKKLVEVQREGKRPIILISTFDVFVDLPAHLKGVNLSRNFEVIDEVLETLTAKPIENIEDLVVEIADHLLKRHEYATKAEARMNSELIMRKRTPKTGQRTQEVVKIFGEATLGRDGSKVIMVGVEVTGITACPCAQELVKASSAERLAKMGFDEETIQKILDAIPVATHNQRGRATLKVQVTDSFKVPIAKLIDVAKSSMSYETYEILKREDELAVVEAAHRNTRFVEDGVRYMAMELLKTFPNAPDDILVFLRQENEESIHQHNVVAERFATFGELRNEIGSPDASGSSAD | soluble
MDALIMAGGKGTRLKENVEKPILNICEKPMIDYVIDSLLNSKIEKIYVAVSIHTPKTKEYLEKKYRLDRNYNPKIDIICTSGTNYVDDLNECMEFFKEPFLILSSDIPTIKPKVINSIIQDYLFVNNSCNRIESFCVVTKDDDYVGTPSINMGGYIPLGINILTPKHGEQTEILHVIKDIIVNVNTLSDKKLVETLINKVVELEHHHHHH | soluble
MSLAREPRNIGASVRARLLDRARAERSDFQILLTRYALERLLYRLSASPHRDRFILKGAMLFVTWIADPFRPTRDLDLLGHGDRDTEAIAETFRAICAQPVVDDGVTFDVAALMATPIREELEYGGVRVRTTATIAGARIPIQVDIGFGDAITPAAVEIDYPTLLDAPTPHLRAYPVETVVAEKFAALVTLGVANSRLKDFYDLWVISRTFELRRAALAEAIQRTFERRGTVLPSVVPVGLTDEFAETWAAQWRAFLERDRMAAAPDAFAVTVADLRLFLMPLVVGLKEERIWPPSGPWSPGAAIDEAEGHHHHHH | soluble
MGSDKIHHHHHHVTSGQDKPWPPVSMGMARLTTMAFHGENMVPPAIELLKRSEADPTDSAALLDLSAIHFLLGHEEAGLAYQERALAQNQVYRDHSETASEDGVRLLAFAAPGNLMSNVPIQFLIENSDIRLDVLYVVPGLDLPERVPAHDMAMVIAGESEPNREVLERIAAFADLWPCPPVLNDPRKVLQLSRDGVSSLLSGVPGIRIPATTRVDPESLARLGRGEIALTDLLPDGSFPVIARPLDSHAGKGLAKLDDPSTIALYLAAQPAEGYYLSSFVDYRGAGGMFRKYRIALIDGKPFVCHMAVSAHWMIHYLNADMRESAEKRAEEAQAFATFDEDFAARHKDAFATMAERIGLDYFAMDCAETPDGDLLVFEADTAMIVHAMDPPDIFPYKAPQMRRIFKAFQDMLRRIKQDKQD | not soluble
MTSTSTPPGLARFNDLGEHAALAALHEACASTTWARRLIAARPYATADDLYTASDAAMAELTAADLAQAMAGHPPIGRPKPGDPTSAREQRGMAGASEELKADMLELNLAYQEKFGHVFLICATGRTGEQMRDAVRERIGNAPEREREIVRTELGKINRIRLARLVEEDAHALEHHHHHH | soluble
MGSDKIHHHHHHMKRPISQQSVQVALGQAALPVGVLTFNKDGARESSTFAYHEAWLRSADRFEISPDLQLVQGQQFRKAPSRDDSIFPFAFADTEPDGWGCRVIARDHARRRKSAQEKGRDVPHAGLTEMDYLLGVDDLSRIGALRLADEAGNYLRSIEDGGRGTPPLLELGHLIGATRAVEMNRETAADLKYLRGRGTSLGGMRPKCTILDEDGQLAIGKFPSINDDRSVTRGEVLALHLAAAAGITVAQSRIVMSEEIPVALVRRFDRVTNGGRIPYLSAGSMLQASRQEEHAYTQIADCIIARCADPKRDLEELWRRLVFNLLITNVDDHVQNHGFLHVEHGLWRLAPAFDINPFPDKDPELKLWLNEDYGPVDSIEAVMNEARYFRLSADEAKRILGEVRNAVGDWKRVAKSAPVGMTDDDLDAFQPAFENGQTEAAAALL | not soluble
MGLLALGTPLQWFESRTYNEHIRDEGIEQLLYIFQAAGKRDNDPLFWGDELEYMVVDFDDKERNSMLDVCHDKILTELNMEDSSLCEANDVSFHPEYGRYMLEATPASPYLNYVGSYVEVNMQKRRAIAEYKLSEYARQDSKNNLHVGSRSVPLTLTVFPRMGCPDFINIKDPWNHKNAASRSLFLPDEVINRHVRFPNLTASIRTRRGEKVCMNVPMYKDIATPETDDSIYDRDWFLPEDKEAKLASKPGFIYMDSMGFGMGCSCLQVTFQAPNINKARYLYDALVNFAPIMLAFSAAAPAFKGWLADQDVRWNVISGAVDDRTPKERGVAPLLPKYNKNGFGGIAKDVQDKVLEIPKSRYSSVDLFLGGSKFFNRTYNDTNVPINEKVLGRLLENDKAPLDYDLAKHFAHLYIRDPVSTFEELLNQDNKTSSNHFENIQSTNWQTLRFKPPTQQATPDKKDSPGWRVEFRPFEVQLLDFENAAYSVLIYLIVDSILTFSDNINAYIHMSKVWENMKIAHHRDAILFEKFHWKKSFRNDTDVETEDYSISEIFHNPENGIFPQFVTPILCQKGFVTKDWKELKHSSKHERLYYYLKLISDRASGELPTTAKFFRNFVLQHPDYKHDSKISKSINYDLLSTCDRLTHLDDSKGELTSFLGAEIAEYVKKNKPSIESKCDKLAAALGHHHHHH | soluble
MFFKQFYDKHLSQASYLIGCQKTGEAMIIDPIRDLSSYIRVADEEGLTITHAAETHIHADFASGIRDVAIKLNASIYVSGESDDTLGYKNMPNQTHFVQHNDDIYVGNIKLKVLHTPGHTPESISFLLTDEGAGAQVPMGLFSGDFIFVGDIGRPDLLEKAVKVEGSSEIGAKQMFKSIESIKDLPNYIQIWPGHGAGSPCGKSLGAIPTSTLGYEKQTNWAFSENNEATFIDKLISDQPAPPHHFAQMKKINQFGMNLYQPYTVYPATNTNRLTFDLRSKEAYHGGHIEGTINIPYDKNFINQIGWYLNYDQEINLIGEYHLVSKATHTLQLIGYDDVAGYQLPQSKIQTRSIHSEDITGNESHILDVRNDNEWNNGHLSQAVHVPHGKLLETDLPFNRNDVIYVHCQSGIRSSIAIGILEHKGYHNIINVNEGYKDIHLSLEHHHHHH | soluble
MKEKEHQSIEWKESWQDEYLKWICGYANAYGGTIYIGTDDDGNVVGIDNARDLLERIPNKITDTMGIIVDVNLLYKGELEYLQIIVDKYPSLISFRGKYYYRSGSTMREITGKELERALLKTQGRTWDGVPLPKLTVADLKQDAIQLFKDKAVKRGRLTKEEVSVEDTILMDNLHLIDEDGYLIRAAMLAFYKDPEKWVTGSYIKIGYFGKSDSDLVYQDEVHGPLIEQVDKTVDLVYTKYMKALIDYEGVQRIEQFMFHKDAFREILLNAVVHKDYSSCNPIQISVYEDKIYIWNDGEMPPNLDSTDKLFMKHSSKPYNPKLANVFFKSGMIEAWGRGFEKIREACALYDGPLPEYEINEAGIMVLCKACDKYLGLLRNDGQHHGQCDQEGDHDEEQDIMRQIIAFCMEPKTASEIMQKFNLERSYFRRHYLNKMLKTGKLQRTEPDKPKSKNQKYYS | not soluble
MGSDKIHHHHHHMNLPTASRLQFTPDLNICRILNGMWQVSGAHGRINPQAAIETMFKYLDAGFTTWDLADHYGPAEDFIGEFRCQLIDTRGKDALSKVQAFTKWVPRPGKMTKKLVEENIDISLRRMNVESLDLMQFHWWEYQDKNYLDALKYMAELQTEGKIKHLGLTNFDTENLKLITEAGIKIVSNQVQFSLIDRRPEVNMAEFCQQHDIKLFTYGTLCGSLLSENYLGKPEPRGSDLSTASLKKYKNMIDAWGGWQLFQELLAILKEIANKHKVSISNVAVRYILDQPTVGGVIVGARLGVSEHIEDNAKVFSFSLDADDRDRISAVSRQSRDLYQLIGDCGDEYRR | not soluble
MSQVKRANENRETARFIKKHKKQVTNPIDEKNGTSNCIVRVPIALYVSLAPMYLENPLQGVMKQHLNPLVMKYNNKVGGVVLGYEGLKILDADPLSKEDTSEKLIKITPDTPFGFTWCHVNLYVWQPQVGDVLEGYIFIQSASHIGLLIHDAFNASIKKNNIPVDWTFVHNDGNRSLGHWVDSNGEPIDGKLRFTVRNVHTTGRVVSVDGTLIS | soluble
MGSDKIHHHHHHMSLSHNRHKKLIEMVQTDGEVRIRDLMVHFNVSEETARRDIKQLEQDGLVVRVHGGAVATQQPKLLTISSRAISELAEKNVIAEIALGLLKPGQNLFFGGGSTVLALARRISMLPEMRIVTNMVDTAIAASEGRRHRVVLLGGDFNGDYRVVTGFAALRTLREQQIDIAFIGVNAVHPTLGVFDHEQGGQELAATLAEQARKITVLADHSKFGRSARYRTLPHSAIATIITDQQPEPHVLTAIEGAGADVLYPPQNPS | not soluble
